Measured values published in patent publication US20110014241A1.

Target: H-2K^b class I-determinants expressed on LM fibroblasts transduced with pBR327H-2K^b (mouse) (UniProt P01901)
Assay: flow cytometry staining of LM cells transduced with pBR327H-2K^b, control staining

Chain of UniProt P01901 (P01901 22-369): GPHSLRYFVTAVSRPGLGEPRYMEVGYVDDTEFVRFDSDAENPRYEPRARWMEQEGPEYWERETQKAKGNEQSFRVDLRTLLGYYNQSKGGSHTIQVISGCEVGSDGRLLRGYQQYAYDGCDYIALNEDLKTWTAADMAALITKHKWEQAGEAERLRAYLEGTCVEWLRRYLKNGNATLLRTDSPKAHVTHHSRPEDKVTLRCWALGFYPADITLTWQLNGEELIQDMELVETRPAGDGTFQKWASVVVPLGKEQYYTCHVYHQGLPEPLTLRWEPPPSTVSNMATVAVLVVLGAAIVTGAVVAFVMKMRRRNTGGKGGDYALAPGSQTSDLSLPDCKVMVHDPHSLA

Substance: isotope control sera (antibody)
- mean fluorescence index (MFI): 0.3
